Test results published in US10562935B2, “Stapled peptides and uses thereof” (London Health Sciences Centre Research Inc., priority 2015, dated 2020).
Where a SMILES comes first, the peptide text is derived from it. Bridges are numbered along the chain shown (N, C = ends). The star is where a group is joined. Biotin = O=C1N[C@H]2[C@H](CS[C@H]2CCCCC(=O)*)N1; AEEA = NCCOCCOCC(=O)O

Assay: not given
Conditions: biotinylated peptide, HA coated ELISA plate

| Molecule | peptide concentration required for equivalent interaction with HA [ng/mL] |
| --- | --- |
| Biotin-AEEA-(cyclo-6,10)-VSKLR[EQLVK]RKQN-NH2 [Compound 287] | 80 |
| {Biotin-AEEA}-VSKLRSQLVKRKQN-NH2 [Compound 284] | 10000 |

Assay: circular dichroism
Conditions: Milli-Q water; pH ns; ns °C; 0.5 mM

| Molecule | helicity [MRE222] |
| --- | --- |
| CC(C)[C@H](N)C(=O)N[C@@H](CO)C(=O)N[C@@H](CCCCN)C(=O)N[C@H]1CCC(=O)NCCCC[C@@H](C(=O)N[C@H](C(=O)N[C@@H](CCCCN)C(=O)N[C@@H](CCCNC(=N)N)C(=O)N[C@@H](CCCCN)C(=O)N[C@@H](CCC(N)=O)C(=O)N[C@@H](CC(N)=O)C(N)=O)C(C)C)NC(=O)[C@H](CCC(N)=O)NC(=O)[C@H](CO)NC(=O)[C@H](CCCNC(=N)N)NC1=O (H-VSKERSQKVKRKQN-NH2; lactam 4-8) | -2260 |
| CC(C)C[C@@H]1NC(=O)[C@H](CCC(N)=O)NC(=O)[C@H](CO)NC(=O)[C@@H](NC(=O)[C@H](CC(C)C)NC(=O)[C@H](CCCCN)NC(=O)[C@H](CO)NC(=O)[C@@H](N)C(C)C)CCC(=O)NCCCC[C@@H](C(=O)N[C@@H](CCCCN)C(=O)N[C@@H](CCCNC(=N)N)C(=O)N[C@@H](CCCCN)C(=O)N[C@@H](CCC(N)=O)C(=O)N[C@@H](CC(N)=O)C(N)=O)NC1=O (H-VSKLESQLKKRKQN-NH2; lactam 5-9) | -4400 |
| CC(C)C[C@H](NC(=O)[C@H](CCCCN)NC(=O)[C@H](CO)NC(=O)[C@@H](N)C(C)C)C(=O)N[C@@H](CCCNC(=N)N)C(=O)N[C@H]1CCC(=O)NCCCC[C@@H](C(=O)N[C@@H](CCCNC(=N)N)C(=O)N[C@@H](CCCCN)C(=O)N[C@@H](CCC(N)=O)C(=O)N[C@@H](CC(N)=O)C(N)=O)NC(=O)[C@H](C(C)C)NC(=O)[C@H](CC(C)C)NC(=O)[C@H](CCC(N)=O)NC1=O (H-VSKLREQLVKRKQN-NH2; lactam 6-10) | -4400 |
| CC(C)C[C@H](NC(=O)[C@H](CCCCN)NC(=O)[C@H](CO)NC(=O)[C@@H](N)C(C)C)C(=O)N[C@@H](CCCNC(=N)N)C(=O)N[C@@H](CO)C(=O)N[C@H]1CCC(=O)NCCCC[C@@H](C(=O)N[C@@H](CCCCN)C(=O)N[C@@H](CCC(N)=O)C(=O)N[C@@H](CC(N)=O)C(N)=O)NC(=O)[C@H](CCCCN)NC(=O)[C@H](C(C)C)NC(=O)[C@H](CC(C)C)NC1=O (H-VSKLRSELVKKKQN-NH2; lactam 7-11) | -1570 |

Same assay, conditions: water (methods paragraph says 0.1 M phosphate; tables say water); pH ns; 20 °C; 0.5 mM

| Molecule | helicity [MRE222] |
| --- | --- |
| CC(=O)N[C@H](C(=O)N[C@@H](CO)C(=O)N[C@@H](CCCCN)C(=O)N[C@@H](CC(C)C)C(=O)N[C@H]1CCC(=O)NCCCC[C@@H](C(=O)N[C@@H](CCCCN)C(=O)N[C@@H](CCCNC(=N)N)C(=O)N[C@@H](CCCCN)C(=O)N[C@@H](CCC(N)=O)C(=O)N[C@@H](CC(N)=O)C(N)=O)NC(=O)[C@H](CC(C)C)NC(=O)[C@H](CCC(N)=O)NC(=O)[C@H](CO)NC1=O)C(C)C (Ac-VSKLESQLKKRKQN-NH2; lactam 5-9) | -6450 |
| CC(=O)N[C@H](C(=O)N[C@@H](CO)C(=O)N[C@@H](CCCCN)C(=O)N[C@@H](CC(C)C)C(=O)N[C@H]1CCCCNC(=O)CC[C@@H](C(=O)N[C@@H](CCCCN)C(=O)N[C@@H](CCCNC(=N)N)C(=O)N[C@@H](CCCCN)C(=O)N[C@@H](CCC(N)=O)C(=O)N[C@@H](CC(N)=O)C(N)=O)NC(=O)[C@H](CC(C)C)NC(=O)[C@H](CCC(N)=O)NC(=O)[C@H](CO)NC1=O)C(C)C (Ac-VSKLKSQLEKRKQN-NH2; lactam 5-9) | -974 |
| CC(=O)N[C@H](C(=O)N[C@@H](CO)C(=O)N[C@@H](CCCCN)C(=O)N[C@@H](CC(C)C)C(=O)N[C@@H](CCCNC(=N)N)C(=O)N[C@H]1CCC(=O)NCCCC[C@@H](C(=O)N[C@@H](CCCNC(=N)N)C(=O)N[C@@H](CCCCN)C(=O)N[C@@H](CCC(N)=O)C(=O)N[C@@H](CC(N)=O)C(N)=O)NC(=O)[C@H](C(C)C)NC(=O)[C@H](CC(C)C)NC(=O)[C@H](CCC(N)=O)NC1=O)C(C)C (Ac-VSKLREQLVKRKQN-NH2; lactam 6-10) | -4850 |
| CC(=O)N[C@H](C(=O)N[C@@H](CO)C(=O)N[C@@H](CCCCN)C(=O)N[C@@H](CC(C)C)C(=O)N[C@@H](CCCNC(=N)N)C(=O)N[C@H]1CCCCNC(=O)CC[C@@H](C(=O)N[C@@H](CCCNC(=N)N)C(=O)N[C@@H](CCCCN)C(=O)N[C@@H](CCC(N)=O)C(=O)N[C@@H](CC(N)=O)C(N)=O)NC(=O)[C@H](C(C)C)NC(=O)[C@H](CC(C)C)NC(=O)[C@H](CCC(N)=O)NC1=O)C(C)C (Ac-VSKLRKQLVERKQN-NH2; lactam 6-10) | -1980 |
| Ac-VSKLRSQLVKRKQN-NH2 | -1100 |
